Data published in article PMC10952505.

Experiments:
[1] = molecular target: human μ opioid receptor-Renilla luciferase II (human) (UniProt P35372)
[2] = molecular target: HA-rat μ opioid receptor (rat) (UniProt P33535)
[3] = molecular target: endogenous μ opioid receptor of rat locus coeruleus neurones (rat (endogenous in locus coeruleus neurones)) (UniProt P33535)
[4] = molecular target: human μ opioid receptor-Renilla luciferase II (human) (UniProt P35372); remark: listed apart in the source
[5] = molecular target: HA-rat μ opioid receptor (rat) (UniProt P33535); remark: listed apart in the source

Sequence of UniProt P35372 (P35372 whole entry): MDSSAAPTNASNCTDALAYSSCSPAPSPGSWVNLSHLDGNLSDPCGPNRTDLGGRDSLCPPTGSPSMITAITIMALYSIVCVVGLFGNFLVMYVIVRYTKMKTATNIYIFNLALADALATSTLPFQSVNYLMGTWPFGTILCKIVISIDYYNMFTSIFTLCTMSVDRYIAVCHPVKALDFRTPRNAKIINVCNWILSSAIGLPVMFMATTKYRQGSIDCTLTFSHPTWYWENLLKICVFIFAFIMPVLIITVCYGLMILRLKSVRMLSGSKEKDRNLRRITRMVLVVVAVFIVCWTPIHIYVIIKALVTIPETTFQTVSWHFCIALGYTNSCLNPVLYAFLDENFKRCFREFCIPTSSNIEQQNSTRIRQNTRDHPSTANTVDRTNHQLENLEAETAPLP

With “DAMGO ([D-Ala^2, N-MePhe^4, Gly-ol]-enkephalin) (peptide)” the β-arrestin 2 recruitment BRET (μ opioid receptor-RlucII / β-arrestin 2-GFP10) in HEK293T cells, log EC50 (M) [1] was -5.7 log EC50 (M), the G protein activation BRET (Gαi1-RlucII / GFP10-Gγ2) in HEK293T cells, log EC50 (M) [2] was -6.48 log EC50 (M) and the cell surface receptor loss (ELISA of HA-tagged receptor, 1 h agonist) in HEK293T cells, log EC50 (M) [2] was -6.14 log EC50 (M). The opioid-evoked GIRK current in rat locus coeruleus neurones (whole-cell patch clamp), log EC50 (M) [3] was -7.29 log EC50 (M), the KA (equilibrium dissociation constant) by Furchgott's method from β-arrestin 2 recruitment BRET curves with and without β-FNA, whole cells [4] was 1580 nM and the KA (equilibrium dissociation constant) by Furchgott's method from G protein activation BRET curves with and without β-FNA, whole cells [5] was 5.6 µM.
